Values belong to the binder of their own block, whether it stands above or below them.
What was measured:
[1] = biological target: human CD3 (particularly the epsilon subunit of CD3) (human, UniProt P07766 23-207); assay: cell-based or functional assay
human Her3 = human Her3 (human, UniProt P21860 20-1342); assay: cell-based or functional assay

- EC50 of activation of Jurkat-NFAT reporter cells via CD3 after 5 h (luminescence, KPL4 tumor cells) [1]: 34.4 pM
B1: Her2 TCB: anti-Her2/anti-CD3 '2+1 IgG CrossFab, inverted' molecule with charge modifications (bispecific antibody)
light: EVQLLESGGGLVQPGGSLRLSCAASGFTFSTYAMNWVRQAPGKGLEWVSRIRSKYNNYATYYADSVKGRFTISRDDSKNTLYLQMNSLRAEDTAVYYCVRHGNFGNSYVSWFAYWGQGTLVTVSSASVAAPSVFIFPPSDEQLKSGTASVVCLLNNFYPREAKVQWKVDNALQSGNSQESVTEQDSKDSTYSLSSTLTLSKADYEKHKVYACEVTHQGLSSPVTKSFNRGEC
chain 1: not shown
chain 2: not shown
chain 3: not shown

- EC50 of activation of Jurkat-NFAT reporter cells via CD3 after 5 h (luminescence, KPL4 tumor cells) [1]: 22 pM
- EC50 of tumor cell lysis (LDH release), KPL4 cells, 24 h (human Her3): 2.54 pM
- EC50 of tumor cell lysis (LDH release), KPL4 cells, 48 h (human Her3): 0.53 pM
- EC50 of tumor cell lysis determined by Caspase 3/7 activity (luminescence), KPL-4-Caspase-3/7 GloSensor cells, 6.5 h (human Her3): 0.7 pM
B2: Her3 TCB: anti-Her3/anti-CD3 '2+1 IgG CrossFab' molecule with charge modifications (bispecific antibody)
light: B1 light
chain 1: not shown
chain 2: QVQLVQSGAEVKKPGASVKVSCKASGYTFRSSYISWVRQAPGQGLEWMGWIYAGTGSPSYNQKLQGRVTMTTDTSTSTAYMELRSLRSDDTAVYYCARHRDYYSNSLTYWGQGTLVTVSSASTKGPSVFPLAPSSKSTSGGTAALGCLVEDYFPEPVTVSWNSGALTSGVHTFPAVLQSSGLYSLSSVVTVPSSSLGTQTYICNVNHKPSNTKVDEKVEPKSCDKTHTCPPCPAPEAAGGPSVFLFPPKPKDTLMISRTPEVTCVVVDVSHEDPEVKFNWYVDGVEVHNAKTKPREEQYNSTYRVVSVLTVLHQDWLNGKEYKCKVSNKALGAPIEKTISKAKGQPREPQVCTLPPSRDELTKNQVSLSCAVKGFYPSDIAVEWESNGQPENNYKTTPPVLDSDGSFFLVSKLTVDKSRWQQGNVFSCSVMHEALHNHYTQKSLSLSP
chain 3: not shown

— US20200231673A1 (Hoffmann-La Roche, published 2020)
